Reference: IntAct's records for PubMed 19731236

B1: Phospholipid-transporting ATPase IC (Homo sapiens), O43520 (parent)
chain: MSTERDSETTFDEDSQPNDEVVPYSDDETEDELDDQGSAVEPEQNRVNREAEENREPFRKECTWQVKANDRKYHEQPHFMNTKFLCIKESKYANNAIKTYKYNAFTFIPMNLFEQFKRAANLYFLALLILQAVPQISTLAWYTTLVPLLVVLGVTAIKDLVDDVARHKMDKEINNRTCEVIKDGRFKVAKWKEIQVGDVIRLKKNDFVPADILLLSSSEPNSLCYVETAELDGETNLKFKMSLEITDQYLQREDTLATFDGFIECEEPNNRLDKFTGTLFWRNTSFPLDADKILLRGCVIRNTDFCHGLVIFAGADTKIMKNSGKTRFKRTKIDYLMNYMVYTIFVVLILLSAGLAIGHAYWEAQVGNSSWYLYDGEDDTPSYRGFLIFWGYIIVLNTMVPISLYVSVEVIRLGQSHFINWDLQMYYAEKDTPAKARTTTLNEQLGQIHYIFSDKTGTLTQNIMTFKKCCINGQIYGDHRDASQHNHNKIEQVDFSWNTYADGKLAFYDHYLIEQIQSGKEPEVRQFFFLLAVCHTVMVDRTDGQLNYQAASPDEGALVNAARNFGFAFLARTQNTITISELGTERTYNVLAILDFNSDRKRMSIIVRTPEGNIKLYCKGADTVIYERLHRMNPTKQETQDALDIFANETLRTLCLCYKEIEEKEFTEWNKKFMAASVASTNRDEALDKVYEEIEKDLILLGATAIEDKLQDGVPETISKLAKADIKIWVLTGDKKETAENIGFACELLTEDTTICYGEDINSLLHARMENQRNRGGVYAKFAPPVQESFFPPGGNRALIITGSWLNEILLEKKTKRNKILKLKFPRTEEERRMRTQSKRRLEAKKEQRQKNFVDLACECSAVICCRVTPKQKAMVVDLVKRYKKAITLAIGDGANDVNMIKTAHIGVGISGQEGMQAVMSSDYSFAQFRYLQRLLLVHGRWSYIRMCKFLRYFFYKNFAFTLVHFWYSFFNGYSAQTAYEDWFITLYNVLYTSLPVLLMGLLDQDVSDKLSLRFPGLYIVGQRDLLFNYKRFFVSLLHGVLTSMILFFIPLGAYLQTVGQDGEAPSDYQSFAVTIASALVITVNFQIGLDTSYWTFVNAFSIFGSIALYFGIMFDFHSAGIHVLFPSAFQFTGTASNALRQPYIWLTIILAVAVCLLPVVAIRFLSMTIWPSESDKIQKHRKRLKAEEQWQRRQQVFRRGVSTRRSAYAFSHQRGYADLISSGRSIRKKRSPLDAIVADGTAEYRRTGDS
partner: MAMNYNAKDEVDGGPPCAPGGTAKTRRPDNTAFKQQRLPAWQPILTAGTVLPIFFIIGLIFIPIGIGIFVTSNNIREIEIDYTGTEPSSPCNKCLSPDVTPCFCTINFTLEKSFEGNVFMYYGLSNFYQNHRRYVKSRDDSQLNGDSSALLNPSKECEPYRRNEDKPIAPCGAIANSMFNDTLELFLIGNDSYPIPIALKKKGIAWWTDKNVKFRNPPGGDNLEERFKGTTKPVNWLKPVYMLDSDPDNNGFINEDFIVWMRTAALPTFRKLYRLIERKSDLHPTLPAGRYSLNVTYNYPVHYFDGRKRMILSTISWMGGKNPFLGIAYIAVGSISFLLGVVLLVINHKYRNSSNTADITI

Variants of: B1
Conditions: with cc50a_human TMEM30A

Variant | effect of a mutation on the interaction
D70N | decreasing interaction
G308V | disrupting interaction
G1040R | decreasing interaction
R867C | decreasing interaction
D554N | disrupting interaction
I661T | decreasing interaction
D454A | disrupting interaction
